Laboratory results reported in paper PMC4795551, “Biochemistry and Crystal Structure of Ectoine Synthase: A Metal-Containing Member of the Cupin Superfamily” (PLoS ONE, 2016).

Key:
[1] = biological target: the molecule itself; test: SEC-MALS; HPLC-MALS; Bio SEC-5 HPLC column (300 Å), 20 mM Tris-HCl (pH 7.5), 200 mM NaCl; 100 μl of purified (Sa)EctC at 2 mg ml^-1 loaded
[2] = substrate: CC(=O)NCC[C@H](N)C(=O)O; test: HPLC assay of ectoine formation, Michaelis-Menten; assay type: biochemical, Sphingopyxis alaskensis; settings: 20 mM Tris pH 8.5, 200 mM NaCl, 1 mM FeCl2, 15 °C, 20 min, 0-40 mM substrate
[3] = substrate: CC(=O)N[C@@H](CCN)C(=O)O; test: HPLC assay of ectoine formation, Michaelis-Menten; assay type: biochemical, Sphingopyxis alaskensis; settings: 20 mM Tris pH 8.5, 200 mM NaCl, 1 mM FeCl2, 15 °C, 20 min, 0-200 mM substrate

B1: ectoine synthase from Sphingopyxis alaskensis, (Sa)EctC-Strep-tag II protein (enzyme, UniProt Q1GNW6 1-137, looked up)
chain: MIVRNLGDIRKTDRNVRSDGWASARMLLKDDGMGFSFHVTTLFAGSELRMHYQNHLEAVLVLKGTGTIEDLATGEVHALRPGVMYALDDHDRHIVRPETDILTACVFNPPVTGREVHDESGAYPADPELAREPVAAD
notes: Ectoine synthase EctC (EC 4.2.1.108) of Sphingopyxis alaskensis, 137 amino acids; made from a codon-optimised synthetic ectC gene; printed stretches: 1-MIVRN-5 and 82-GVMYAL-87; Monomer with tag 16.3 kDa; In the crystals only Met-1 to Glu-115 (open) or Met-1 to Gly-121 (protomer A, semi-closed) are resolved; not shown: Strep-tag II, C-terminal, kept
**Q.** What does the source list for B1?
**A.** stoichiometry N [1]: 2; Km [2]: 4.9 ± 0.5 mM; kcat [2]: 7.2 s⁻¹; Km [3]: 25.4 ± 2.9 mM; kcat [3]: 0.6 s⁻¹
